Experimental data reported in patent US20100209447A1 (TUFTS UNIVERSITY, published 2010).

Target: the molecule itself
Experiment: Coomassie-stained gel; self-association inferred from a band of about 17 kD against a 3.5 kD monomer

B1: C-POD, CGGG(ARKKAAKA)4 (peptide)
peptide: CGGGARKKAAKAARKKAAKAARKKAAKAARKKAAKA
notes: Synthetic peptide with a 3.5 kD monomer; also called cysteine containing POD; cysteine-POD
- binding result: binds
